Results on 5 molecules are retold here after patent US20090297438A1 (published 2009).

Positions count from the first letter of the chain named.

For experiment [1], the target named is T1, human prostate specific membrane antigen (PSMA) on LNCaP prostate cancer cells (human, UniProt Q04609 1-750).
T1 construct: whole, on cells; also called PSMA-expressing LNCaP cells
Put plainly: flow cytometry on LNCaP cells, FITC-labeled anti-human IgG detection. The protocol: The human PSMA-expressing prostate cancer cell line LNCaP was used to determine the specificity of anti-PSMA human monoclonal antibodies by flow cytometry. Binding of the 2F5, 2A10, and 2C6 anti-PSMA human monoclonal antibodies was assessed by incubating the LNCaP cells with the anti-PSMA human monoclonal antibodies at different concentrations. The cells were washed and binding was detected with a FITC-labeled anti-human IgG Ab. Flow cytometric analyses were performed using a FACScan flow cytometry (Becton Dickinson, San Jose, Calif.). The human anti-PSMA monoclonal antibody 7F12 (as described in PCT Publication WO 03/064606) was used as a positive control and a non-PSMA specific isotype control antibody was used as a negative control. The results are depicted in FIG. 9. The anti-PSMA human monoclonal antibodies 2F5, 2A10, and 2C6 bound specifically to the PSMA-expressing LNCaP cells.

The target in experiment [2] is T2, PSMA immunopurified from LNCaP cells (human, UniProt Q04609 1-750).
T2 construct: also called purified PSMA; immunopurified PSMA
T2 sequence (Q04609 whole entry): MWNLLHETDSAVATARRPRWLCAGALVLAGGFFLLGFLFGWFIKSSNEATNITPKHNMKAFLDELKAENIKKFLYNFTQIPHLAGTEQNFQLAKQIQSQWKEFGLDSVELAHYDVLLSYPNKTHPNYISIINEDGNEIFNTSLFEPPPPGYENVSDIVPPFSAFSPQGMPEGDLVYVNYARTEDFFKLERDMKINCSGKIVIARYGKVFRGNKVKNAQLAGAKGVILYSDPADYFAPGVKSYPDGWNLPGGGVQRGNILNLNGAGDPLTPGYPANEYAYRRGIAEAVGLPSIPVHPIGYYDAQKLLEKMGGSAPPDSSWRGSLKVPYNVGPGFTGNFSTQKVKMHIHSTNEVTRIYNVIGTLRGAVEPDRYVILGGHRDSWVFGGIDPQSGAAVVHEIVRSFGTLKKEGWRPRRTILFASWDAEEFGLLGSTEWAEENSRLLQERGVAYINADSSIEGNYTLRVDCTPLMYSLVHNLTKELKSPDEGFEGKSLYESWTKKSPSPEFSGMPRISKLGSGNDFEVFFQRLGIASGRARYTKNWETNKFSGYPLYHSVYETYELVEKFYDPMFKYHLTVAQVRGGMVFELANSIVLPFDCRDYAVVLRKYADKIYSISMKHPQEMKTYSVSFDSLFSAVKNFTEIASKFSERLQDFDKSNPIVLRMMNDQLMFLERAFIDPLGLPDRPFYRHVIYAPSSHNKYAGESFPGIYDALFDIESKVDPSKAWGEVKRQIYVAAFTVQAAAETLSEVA
The experiment can be described thus: ELISA on PSMA immunopurified from LNCaP cells, HRP goat anti-human IgG (kappa chain-specific) detection. The procedure: A comparison of anti-PSMA antibodies on binding to immunopurified PSMA was performed by standard ELISA to examine the specificity of binding for PSMA.
PSMA was immunopurified from LNCaP cells and tested for binding against the anti-PSMA human monoclonal antibodies 1C3, 2A10, 2F5, and 2C6. Standard ELISA procedures were performed. The anti-PSMA human monoclonal antibodies were added at a concentration of 5 μg/ml and titrated down at 1:2 serial dilutions. Goat-anti-human IgG (kappa chain-specific) polyclonal antibody conjugated with horseradish peroxidase (HRP) was used as secondary antibody. The human anti-PSMA monoclonal antibody 7F12 was used as a positive control and a blank was used as a negative control. The anti-PSMA human monoclonal antibodies 2A10 and 2F5 bound with high specificity to PSMA.

Experiment [3] concerns the target T1, human prostate specific membrane …. Put plainly: cell-based or functional assay.
For experiment [4] the target is unchanged. The experiment can be described thus: radioligand competition on LNCaP cells: unlabeled antibody varied against a fixed concentration of 125I-2A10. The protocol: (§1) LNCaP cells were obtained from ATCC(CRL-1740) and grown in RPMI media containing 10% fetal bovine serum (FBS). The cells were trypsinized and washed once in Tris based binding buffer (24 mM Tris pH 7.2, 137 mM NaCl, 2.7 mM KCl, 2 mM Glucose, 1 mM CaCl₂, IMM MgCl₂, 0.1% BSA) and the cells were adjusted to 2×10⁶ cells/ml in binding buffer. Millipore plates (MAFB NOB) were coated with 1% nonfat dry milk in water and stored a 4° C. overnight. The plates were washed three times with 0.2 ml of binding buffer. Twenty-five microliters of buffer alone was added to the wells (non-specific binding). A fixed concentration of ¹²⁵I-anti-PSMA antibody was added to all wells in a volume of 25 μl. Varying concentrations of unlabeled antibody was added to wells in a volume of 25 μl and 25 μl of LNCaP cells (2×10⁶ cells/ml) in binding buffer were added to all wells. The plates were incubated for 2 hours at 200 RPM on a shaker at 4° C. At the completion of the incubation the Millipore plates were washed three times with 0.2 ml of cold wash buffer (24 mM Tris pH 7.2, 500mM NaCl, 2 mM KCl, 2 mM Glucose, 1 mM CaCl₂, 1 mM MgCl₂, 0.1% BSA). The filters were removed and counted in a gamma counter. Evaluation of equilibrium binding was performed using single site binding parameters with the Prism software (San Diego, Calif.). An isotype control antibody was used as a negative control. […]

The target is the same in experiment [5]. The experiment can be described thus: Scatchard analysis, 125I-labelled antibody on LNCaP cells. The protocol:
The binding affinity of the 2A10 antibody for the PSMA-expressing prostate cancer LNCaP cell line was tested using a Scatchard analysis.
LNCaP cells were obtained from ATCC(CRL-1740) and grown in RPMI media containing 10% fetal bovine serum (FBS). The cells were trypsinized and washed once in Tris based binding buffer (24 mM Tris pH 7.2, 137 mM NaCl, 2.7 mM KCl, 2mM Glucose, 1 mM CaCl₂, 1 mM MgCl₂, 0.1% BSA) and the cells were adjusted to 2×10⁶ cells/ml in binding buffer. Millipore plates (MAFB NOB) were coated with 1% nonfat dry milk in water and stored a 4° C. overnight. The plates were washed three times with 0.2 ml of binding buffer. Fifty microliters of buffer alone was added to the maximum binding wells (total binding). Twenty-five microliters of buffer alone was added to the control wells (non-specific binding). Varying concentration of ¹²⁵I-anti-PSMA antibody was added to all wells in a volume of 25 μl . Varying concentrations of unlabeled antibody at 100 fold excess was added in a volume of 25 μl to control wells and 25 μl of LNCaP cells (2×10⁶ cells/ml) in binding buffer were added to all wells. The plates were incubated for 2 hours at 200 RPM on a shaker at 4° C. […] The filters were removed and counted in a gamma counter. […]

Experiment [6] has the same target. The experiment can be described thus: radioligand competition on LNCaP cells: unlabeled antibody varied against a fixed concentration of 125I-7F12. The procedure: as §1

T1 sequence (Q04609 whole entry): as above

B1: anti-PSMA human monoclonal antibody 2C6 (antibody, V domains shown)
VH: EVQLVQSGSEVKKPGESLKISCKGSGYSFTNYWIGWVRQMPGKGLEWMGIIYPGDSDTRYSPSFQGQVTISADKSISTAYLQWSSLKASDTAMYYCASPGYTSSWTSFDYWGQGTLVTVSS
VL: EIVLTQSPATLSLSPGERATLSCRASQSVSSYLAWYQQKPGQAPRLLIYDASNRATGIPARFSGSGSGTDFTLTISSLEPEDFAVYYCQQRSNWPLFTFGPGTKVDIK
B1: the binding result in experiment [1] and in experiment [2] was “binds” each time.

B2: anti-PSMA HuMAb antibody 2A10 conjugated to a toxin (antibody, V domains shown)
VH: EVQLVQSGAEVKKPGESLKISCKGSGYSFTSNWIGWVRQMPGKGLEWMGIIYPGDSDTRYSPSFQGQVTISADKSISTAYLQWSSLKASDTAMYYCARQTGFLWSSDLWGRGTLVTVSS
VL: AIQLTQSPSSLSASVGDRVTITCRASQDISSALAWYQQKPGKAPKLLIYDASSLESGVPSRFSGYGSGTDFTLTINSLQPEDFATYYCQQFNSYPLTFGGGTKVEIK
As to B2, in experiment [3], the “EC50, 3H-thymidine incorporation cell proliferation assay, continuous wash” value stood at 0.0643 nM and the “EC50, 3H-thymidine incorporation cell proliferation assay, three-hour wash” value was found to be 0.157 nM.

B3: anti-PSMA human monoclonal antibody 2F5 (antibody, V domains shown)
VH: B2 VH with S84N, S106F
VL: AIQLTQSPSSLSASVGDRVTITCRASQDISSALAWYQQKPGKAPKLLIYDASSLESGVPSRFSGSGSGTDFTLTISSLQPEDFATYYCQQFNSYPLTFGGGTKVEIKI
One may read the EC50 (read off the curve) as the concentration giving half of the maximal effect. For the molecule B3, the entries for the 50% effective concentration (EC50 (read off the curve)) in experiment [1] and in experiment [2] were about 0.8 µg/mL and about 0.04 µg/mL, respectively.

B4: anti-PSMA human monoclonal antibody 2A10 (antibody, V domains shown)
VH: B2 VH
VL: B2 VL
notes: also called anti-PSMA HuMAb 2A10
As usually defined, the Kd is the equilibrium constant for the complex coming apart. Consider B4, for which the “IC50 (read off the curve)” value in experiment [4] was 1 to 2 nM; in experiment [6], about 1 nM. In experiment [5], this molecule had a Kd of about 0.8 nM. The half-maximal effective concentration (EC50 (read off the curve)) is about 0.7 µg/mL in experiment [1] and about 0.04 µg/mL in experiment [2].

B5: anti-PSMA human monoclonal antibody 1C3 (antibody, V domains shown)
VH: QVQLVESGGGVVQPGRSLRLSCAASGFTFSSYAMHWVRQAPGKGLEWVAVISYDGNNKYYADSVKGRFTISRDNSKNTLYLQMNSLRAEDTAVYYCARAVPWGSRYYYYGMDVWGQGTTVTVSS
VL: B2 VL with D28G, P40S, Y49F, Y65S, N76S
In the case of B5, in experiment [2], the binding result is “binds”.
